Experimental findings from the DeepSol protein solubility set are described below.

The data set can be described thus: soluble on expression in E. coli; label from the status in PepcDB or PDB records.
Take “MAHHHHHHMSATPSNVLLGLFDGYMSHKRDQLTSETKLGGTPTYFPPLSDADKAQIRRWTSCGVCGHAMSLLTQAYSPLPTAPASRPHHRMVYVFGCNSGYCSRQPTSSMVAFSVQVDQEDEQALAENAEEEDEDEVIETGPLLPSELPEAVLPPCYVYIDAEPSKEAVVPTDIERELIKMAEENARSTVTDEELQQLEQTVDLKDTKTDYYYEKFRSRVARAPNQVLRYYERTVAAAAATSASLRAKDVKPIFMNPDKVKAMVTIPACACCGSTQTAELQVMPTSLYYLHVSEYTALARADAAAMAAPAGTLAAASTHSNVVDTQSPVASPSASTTTCKASALSGAATGTEKAIPANVDDGCDFGTITVYVCAKDCAARQHGVVLRRETLCVEEAPTMRDEERAGKADAAKAGTDGATHKVTLRELLHGNGEGGEDMEDDDEGHIDDEAVSTA”: the “soluble on expression in E. coli” value is reported as “soluble”.

On to “MGSDKIHHHHHHMISNQILQNTIDGLKGITRTDLCVIDVEGKILAATFPNAEAFIEPAQAFVASPADSQVINGCQFFKVFDDHQLEYVLLAYGDSEDVYMIGKIASFQIQNLLVAYKERFDKDNFIKNLLLDNLLLVDIYNRAKKLHIDIEVRRVVFIVETNREKDGNELEKIRSLFGGKSKDFVTAVDEKNIIVVKELAENETYDDLRKTAEVILNLFRSEADGVHIAYGTVINELKEVSRSYKEARMALDVGKIFFEERNIIAYSQLGIGRLIYQLPIPLCKMFIKEIFDGKSPDDFDEEILSTINKFFENSLNVSETSRQLYIHRNTLVYRLDKLQKSTGLDLRVFEDAITFKIALMVVKYMKYMESMDY”, for which the “soluble on expression in E. coli” value was “not soluble”. Regarding “MATWQGTNGGLLAGIGGVNSNAPSVNDIGNTLQLIRQNNDIERSGANNVGLTALQGLSGIAGVFQQEKQAQRQKEFQQAYANAYASGDRGALRQLATQYPDQIESVRKGMGFIDEEQRNSIGTLAAGARLASSSPEAMQSWLQNNAGELARVGVNPHDVAQMYQQNPRQFGEFVDHLGMNSLGPEKYFDLQDKMQGRQVTMRGQDLDSQTAARNQAITMRGQDIQANLGQQRINLDAETNRINNENKRLDRMLSAETNDLKRQEIQSRIAANNQQLQQKQQALNDGYKDGINTLTTSMFTLNDIVSSPSLKSITGLRGVIPNVPGSQAADTQARLDTFKSQAYLTAVQAMRGMGALSDAEGKKLDQAVGSLQNSQSEESFRRNAGVILNTLNQKRNEAVGKYVQQNGIKRVEAPQASIDYLKQHPELSIDFINRYGYLPSLGQ”, the “soluble on expression in E. coli” value was “soluble”. Regarding “MQDEVETEVIIKDIFKQGKICFIPQYQFQSNHMDMVRLTSPEEIALLPKTSWNIHQPGEGDVREEALSTGGLDLIFLPGLGFDKDGNRLGRGKGYYDTYLKRCVQHQEVKPYTMALAFKEQICPQIPVDEHDMKVDEVLYEDSPAS”, the “soluble on expression in E. coli” value is reported as “soluble”. Take “MPSNPQQSSRATPDRPSGSDESVIVERIYKAVMEQRLAPKTKLSEARLCETFGVGRMRVRRALLLLSSQGIIELQSNRGAYVACPDTAEANEVFAARMLIEPPLVRQLAQSSGNIDLTILTEHIALEDAARERKERTEIIRLSGEFHTKLAQATGNKFIFRMMRELVTRTSLIVGLFGSSENASCPDDEHNNILKAIQSQDPEMAETLLISHLNHIQNGLDMDMRQVPQDDLAAILGSD”: the “soluble on expression in E. coli” value is given as “not soluble”. In the case of “MILTEVSQPTEGIKLATTNVQAFFKIDSLGNGTLYITDSAVIWISSAAGTKGFSVAYPAIVLHAISTDVSVFPSEHIFVMVDQRKSVRRRRRAPVLRTIQEDDEQRGLELAAAELEDEESDDDEEEPALEIRFVPDDKDSLSQIYHQIAVGQEENPEEDDPMYDDEEEEMEEEMGDDGQGQSGQWFTADNIDHMQMSEEGLANMQRIFGRGDQHQHHHNEDESME”, the “soluble on expression in E. coli” value is on record as “not soluble”. For the sequence “MGSSHHHHHHGKTIFVIVPTNEEQVAFLEALAKQDELNFDWQNPPTEPGQPVVILIPSDMVEWFLEMLKAKGIPFTVYVEEGGSENLYFQGGGGGGAQCVRRLVLAATLAAAVALLLCTSSAPVARAAGTGDFTAAQRTNTLAVLQAFGRAIPKLGEKWAGNDFCSWEAVLCNAPDVYVSGISPTYAGTLPEMPVNVDYRHVVIKQLDFSEMGPGLSGTLPASWHSMTSLESLSIEKCESISGSVPPEWGSMTSLSVLNLRGTGISGTLPPQWSGMSKARSLQLQDCDLSGSLPSSWSAIPMLASVSLKGNKFCGVCRTRGIRRLVLLWTSRTSTRAATAWLLRTAQRPPLSPPPRQRPPRTSLTFPLRRGPRLSRLPQPALRHRLNPQPPLRHRLNPRPLLPQQTRRLLHQRRSARWMGVRCARGTPLRGARGAVRTTS”, the “soluble on expression in E. coli” value was “not soluble”. As for “MHPFYTRAATMIGEIAAAVSFISKFLRTKGLTSERQLQTFSQSLQELLAEHYKHHWFPEKPCKGSGYRCIRINHKMDPLIGQAAQRIGLSSQELFRLLPSELTLWVDPYEVSYRIGEDGSICVLYEASPAGGSTQNSTNVQMVDSRISCKEELLLGRTSPSKNYNMMTVSG”, the “soluble on expression in E. coli” value is on record as “soluble”. In the case of “MRPYIINQTEQAQARFGINNDFPVNVILMQPTTSHETFLEGSDYVDFESTSKLRNWPIIVGNQKYFVDPAIFARNSDYFRILMENKFFLEGAIKQLNILDESPEDILKLITVISPNSLGLYPDVIDEQNVCTVLRLCDKYLMTNLKQNCVDYLKDYNPDSREPTDIFHLFYHLCFSLNAEYEHDHSLADVALEAMFVCLVELFNSTNVTKFYRFLIELQRKSGEKDSENLKRVTDAVLHGGSIFKHRISFSEEVQGLGCHQCSMRPPARQSRSKNRKSFVLYLCKSCNREVCVQCRRSLCSRLFEDWINELRS” it was “not soluble”; in that of “MRQNDKIMCILENRKKRDRKNLCRAINDFQQSFQKPETRREFDLSDPLALKKDLPARQSDNDVRNTISGMQKFMGEDLNFHERKKFQEEQNREWSLQQQREWKNARAEQKCAEALYTETRLQFDETAKHLQKLESTTRKAVCASVKDFNKSQAIESVERKKQEKKQEQEDNLAEITNLLRGDLLSENPQQAASSFGPHRVVPDRWKGMTQEQLEQIRLVQKQQIQEKLRLQEEKRQRDLDWDRRRIQGARATLLFERQQWRRQRDLRRALDSSNLSLAKEQHLQKKYMNEVYTNQPTGDYFTQFNTGSR”, “not soluble”; in that of “MRNVFCIGELLIDFVCRNTNVSLVNGSNFEKKAGGAPANVAAAITKLGGHATFMGQVGNDPFGEFLEQTLQHAHVDTSMLIKDKQTTLAFVSIDQNGERDFTFMRGADGEYHFNSIDLSKIKTNDLIHFGSATALLSSPLKDTYFQLLQHARESGQFISFDPNYRNALITNTEQFIQDCLTFIKHAHFVKVSQEEAIMLSKESDLQQSALKLLNHGAKAVAITLGKDGTLLATKDKQTIVPSISIQQVDTTGAGDAFVGAMLYQIAKSEQMFLHNFEGLTTFISFANKVGALTCTNYGAISSLPSLTDVKAYE”, “not soluble”. For the sequence “NKNWFVSFKGTFTYAHNEITQYDESPKYPWQSKIGVSANKNAIYIADGLFIDAADIANHQQQLGAAVIPGDIKYINISRDWYGYDDNLTDTDDWVWAKHPGVPEIVYGFGPSIKWKNLDFSFFFQGIARTSFMVKDFHPFGDSMLRNVLSWVADERWSPDNQNTNATYPRLSRKTNNNNNKLSSYWERNGAFLKLKNAEIGYTYKNMRLYISGSNLMTFAPFDLWDPEQGGGSGLSYPTQRVFNIGFQMTINNK”, the “soluble on expression in E. coli” value is on record as “not soluble”. In the case of “MSTSEMLELNRTIDRLRRAVGSLRSMYGDAASVRRLSNDLERLEIDARELDSSPPNVVHREPVERIKVSDTPYDASMWLGIDDEGLGGLHYERG” it was “not soluble”; in that of “AVELAEEVTNLKQVRTMLEAIIQSSDEAISVVDENGIGLLINKAYTKMTGLSEKEVIGKPANTDISEGESMHLKVLETRRPVRGVRMKVGPNEKEVIVNVAPVIVDGILKGSVGVIHDVS”, “not soluble”.

For the sequence “FPRVSQELKTALSTLQQTFVVSDATQPHCPIVYASSGFFTMTGYSSKEIVGRNCRFLQGPDTDKNEVAKIRDCVKNGKSYCGRLLNYKKDGTPFWNLLTVTPIKDDQGNTIKFIGMQVEVSKYTEGVNDK”, the “soluble on expression in E. coli” value is given as “soluble”. In the case of “MGSDKIHHHHHHMDFKQVQQSFIDYIRDPSRPLPADTDVRRMQVYRELFFNNVLGFVSNGFPVLKSLYSEEEWLALVQSFFSQHDCQSPIFIDIAGEFLDFLQQQYQPTANDPVFMLELAHYEWLELAVAVAQASGDESQLSPAQIPMQALCLSKTARVAQYHFEVQHIRQDYRPQQQLDTPVFFCLYQDADCEVCFLQLNPLSAQVLAFLQAQGQASFKEIVDWLTITYPQMAPEIIAQGCTQLLEQLAAKGIVRGRQS”, the “soluble on expression in E. coli” value is recorded as “not soluble”.
